What follows are sequences tested on Saccharomyces cerevisiae (assay: transcriptional activation domain activity (GFP:mCherry ratio, weighted mean of sorted bins, harmonized to initial dataset scale) (arbitrary fluorescence ratio units); higher = stronger transcriptional activation). Details: beta-estradiol 1 µM; induction time 4 h.
Procedure, shortened: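 Each value is an activation activity: the read-weighted mean of bin median fluorescence, averaged across barcodes, then mapped linearly to the initial dataset scale. The tiles, fused to an estradiol-inducible synthetic transcription factor, sat at the yeast URA3 locus in GFP-reporter diploids. Cells spent 4 hours at 30 °C in SC with 1 uM beta-estradiol before sorting into 8 GFP:mCherry bins, and tiles below 50 reads were removed.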

Sequence | transcriptional activation domain activity
LPLIQRFLIIAPAVIFYSYVYIVPTARRLQLRVCIRNWLGRWYVHLPVLSRSH | 57400
LPLLHRELFLKKYFEPIYGPWNPNIALASDQTGINSAFEIPITSAFSAHTEPK | 41700
LPLYILSLLCCFFIIAMFWKVTIPFFLIFPSFFMLSCFHLYFSFSPSRWCILN | 38600
LPLYNFVRQHLCVFLDRYEHMLTRFLTLGNIMVVSSAVRRGAYWHLLETCQHT | 50200
LPNFLKLGLTTLYSAIGFDEWPSDAVKWAYYFSNIRMVRSWSSWDLYQHLVPW | 45500
LPNVCLILPVYLRALVLNTLQVDKDQRTLLYESIRGHIVTLRGCKTGSKVIWL | 60800
LPQMGVPGEPLTLLVEFADMLIEMWHQCLAQRYYGPIYHLVALIVYTLELNAT | 54200
LPRFFFLSFYTFLLIFPLLHLFHHLSLLFSPPILLYSSLILFFSHFLPLLLFL | 38900
LPSFLFSSLYCFSLLFLSFLSFFPFLTLLLLFSLFPSLSLSLFFSLLFSPQRL | 63400
LPSLAQIDVLIRRERMVTIERHPLCLSLVVASQYTLGPLLLLRIVHCIYKTYG | 58200
LPSSLLFLLPHLFPTLPLLPSIPLLTPSSSSLFFHLICLYCPPFAFWAWFWFW | 55900
LPTGSLLPGVGPLRSLIFDLELTRHIVDAYDLYDILFHPRTLPLLCHLTYLHI | 41800
LPTINTAIPTAAVPQQNIAPPFLNTNSSATDSNPNTNLEDSLFFDHDLLSSSI | 49800
LPTKYRVLDGLFQALAVRAGGFYVVTIANLRQGLLYVSAYPVTLTMRNTNVYE | 48900
LPTNPTTHPLLFSAIHFFIYNVGDLLGRYICSFSCFIIWSQPMLLGLSLARVV | 77600
LPTSFLEYCFRLICLWKPHLIREYFKEWFIFPNVVGWKYILQTFFNILEHVHD | 46600
LPVYQLSVSPWKSKEAMDAWCMAKIESLLLDFKFLNAWVQLLVANNLQQIHIP | 63900
LQAAAALESNTADGEDTNMETEEDKSGADGRSVYVGNVGYRFAVLLASNQVDY | 36600
LQAARSADIAISQFRYLKKLLLVHGAWSYRRLATLILYSFYKNVVLYMTQFWF | 65100
LQAMLLLAHMILAIPFFSLFCRLLLLHPTNPDSPVLWMSLHVFFTYLWSLALV | 66000
LQASREEIRKKVSEDDHGLTRFRRQVVLALDLYIWEPICISLRFLRLVMIFVP | 52400

Sequence | transcriptional activation domain activity
LQCEGFTLRVPFVVDDTFYALMRCFDFFTIDEDPELWRLWCSLLRYALRLQNG | 40200
LQCLLLSVLSPIGLVLLYSHLIGTDLIVIVSQLMFDYQVVQSWFIIFVCLVYW | 57400
LQHLVVPILFLGPLYATYLNQTLPFQAFWDYDEYVLRKYFSFMGLRTYIIGPI | 52300
LQHRTWLIHWSLFPLFNYEQARETLTELFFSAPYINTIQTNCPWILRYLAAAV | 28100
LQILRVVLHLLIFDLHSSSSLTFPLPFPLALPFFIYPLNFLFLFWSFMCTFMY | 84800
LQKDKFKVELQLLDIRVSDKLLMGIEKAIREFLTQKFVICRRVFVPWVPKVLF | 61500
LQKTVNLKNIMKVSDPYVPTRNTFNYDVKISNDFFDNGDNLYGNDEEVLFYED | 61500
LQKYTQLSLLAKPLINLSNHSIQYQTLQSWYFKTLQSLEANRFRNFMLCHRIL | 62300
LQLAFYFGFIMVFVCSYMKRNTLVLLLFLLNNLCMVFRFYASDLLYQYWLIPV | 61800
LQLEMMEGIEDLDLEFDRMLDDFIIINFFIGNDFLPELPMLMVNDGAVPVILS | 85100
LQLYLSSHHREMLVDIWDRLWPWMVFFHVNRGCIADPFMLRPHPCFNLLHFIV | 65600
LQQLLLRDYFKYFIKVFQDLSTYERKSYFVFRQMAYAIISIAQGRGCIEFQCH | 43100
LQQTKRQHSAPSQISANENNIYNLGTLEEFVSSGDLTDLYHTLWNDNTSYPFL | 128000
LQQVCNVLPSFEQSSKIITDFFNTELETNEVSEVLDKTKIINDFTSSFLPSDE | 50400
LQRKNPEEQIAVNKVISLLYSNRESSYLEDTCPTENDYSDLLKGYINEIEKTL | 33800
LQRNILWGMLIFVLAQGLSSTIVVAGFLCTPLSQVWTTPTAIGGPTCINILTF | 61900
LQRPVRIMVDTKHSTVKTLVQEFVRIRPQRDHLRLAMLVLLCRDYFHKRVIVF | 49000
LQSPLYGRHILVAQQLVYYGCVILFPWLFISCALMFKFRGSWLLLYGMIDLSL | 44100
LQSSLLHPCAFYVRLLISILIEYISLPCLTIDFFFFFIFRVTFPIFFLTFFYL | 61400
LQTYMRSLEWTILTCSVIEIIEKLKMAPENMHELSPLCVKLIIKFCLTEILSY | 43400
LQVVIEECDLMPTVAVLLRDAKKVFPERDGFFLYRQMAISVVCVYILCSLFAL | 67900

Sequence | transcriptional activation domain activity
LRAEGLFQCNYLSYFIELTRYTFLFSMFLILLRSGWFGTSGLFLGMLWHQLVF | 37500
LRAIFLALLPVVYYFTYMLVLFLFLLTYYNPFSPFSHAVRPITPPLISIFSSF | 67800
LRALCFEAIRNKGQSVMIARLLQRYMGQLTWLRGGNGVSLLVMVVRDVLLEMQ | 58900
LRAMVMAAPYDGDINITFTKHRSKIYIRPNNTLSELLSNGWIKFLAIILFIYP | 36600
LRAYPVPQALQIAGNESVSPCLVRCLRLLTVLADLLYMHRGFFARALNDHPKD | 46700
LRCVGFILYLLLLIGKIMAFKEIDLLQEHQNFWAKVIYNARGSNRSWDWLSMI | 59600
LRDLERSFDLLRFTWVPSIACWILPLLTRPDFSTLLSVLGETIQRFSSNFVIM | 73700
LREGGVLAVDGTSVGSVEVIYSYSIVVHTRITFRVVARVGRCLVVCLVRWDFY | 38200
LREKGGSQQQQHQQQQQQQQQQQQQQQQQSLDTLLHHYQSLLSKSDNAIAFDD | 26800
LRELHKSSFTNSLRQWVMSGVYQLDPFVRPYLRAYAIACLRIVFHILPHLTSM | 48200
LREVYLLSLFYRIKIRFLEAGFNRLKNLIKLDTRYYIVSFTYIVLELLKAKML | 63300
LRGGYTCQLNGTPKNPDLQVWLQLNLIAYFSFLDTRACDGKTASITGSAEMPF | 51900
LRHICLLLSIWSKHLIERLKKLPANVRLTIVQALVRFVIPKLHIYGHKLLCQL | 44500
LRKSQDRLWAERPWYFYPMYFNEHGNGIFPEVVHLNDAVVIGVLHYYLIQVLL | 46400
LRLAVKNMSEDLPPLVPDIVNLVKRLKWSKAACCYYVLVSNALSLVVFLIDTY | 54900
LRLDGSYLYFADVREANVEQLRLNFTADDVIFKCLAWSIRHFMILRDNYFGSF | 46300
LRLIWVYLYRCHESGSTVTSKLESLLKHFFPPNRLIVVPQEERLEPFVCIVHF | 53100
LRLLVAWLIPQLEMWLHTNMGVRFLLIEYTPEHLGTVLALREFIGDHMFKVAG | 49000
LRLSTTISAYGIGIGYTAAVLVQVLSIVILILLESTTFALRLVLFVVGAWWLI | 46900
LRLVIENIQKYGNLVCLTCHDFRRKDLLLGVGLYFLIPCFLWVALSIELVAAR | 63600
LRLVYCQVKKKKYKSINRYVAIHELSYNVMIWRFLAIYHSSQRLKWSIFLLSF | 42100

Sequence | transcriptional activation domain activity
LRNGYVDLGTHCITLFAQLMYVDCRTVFAEQIFTLAWYTTKGMGTIIATIGDY | 43400
LRPGRQAQRRHVLALQARPALLLPPDLDARAVQPAHRQPQGPEEGGRAGPARP | 15100
LRPHRYFHTNQIYYAAILIDLILRFTWLSRLSVRINWINDLESGVFVLMFLEV | 62500
LRQRILYIYKWFLRKIYPSINAAYYLSILSFSLMYLFDNTKYSNPFLWLIHTR | 63900
LRRGFSKLLLIDDLYVLDKHLRSDRLRDLLWSAYVRAIVPRLCLIAFNFCQPF | 60800
LRSVGRGGNSLVVIGFFVMNGVGIVLERVWKRICGRSVRGIWGWIWTFSWLAL | 79900
LRWMLRCAFALTRYGTTAFLLFFVYVVFLLRVYLLTDRRRSLLYCLTATFVVE | 40100
LRWVLLPLCLFFSVCLEAHWPSISLAIVIIAYNELHMSSHWFLRGFCYAWGNA | 36800
LRWVRSNWRSNLTSLSELHMWWNYPWSLYAVFQTTITQWAFLLDCLLFACFYF | 33700
LRYALDLYRSLRAKVWENSPLILRQLEGIGKMILIISLLRKLIGVIIQLMYCF | 55500
LSADYLCQYSGSLIGKHFKSLAQVMPFIIYDLVPKTVLNAWNVIGNLVVMLWH | 46100
LSAFCCTLVDRYLLSTEYSHFSICLVRSVLNWVARGISSLLLLHFFLLLVMYE | 50600
LSAIVWQIVVDYFYDFVYLTSGLLWPPPTDFIMHTEHFYAGQLIVLLFFYTSL | 69200
LSDDEEEEGGKGREGEGRERKRRGREGKRKGGEERGRGRGREGEREGGEGEGG | 27300
LSELSSALDPTQAQYAYARIEYANDTESKRVKFILVIWIGEGTKVMRKARVSI | 37600
LSEPMAKNPYYYLCVLARIVVVKFAMLLRIIYGVYVPIYTYSAYCFLTDITLF | 62900
LSFLLSFPLPLIPHVLPSLFPCPLFLPLFPPSLPLSPFPPLPLFPPSPFFPLS | 62300
LSFRFLDYTSLTHCVDYRNPALAFNILVTCLLFLILRPKPLVLYWCLVCIGFW | 44700
LSGLFSGYLCLFVSGFHIVMTEGILVIGYLVSPVFLFFFPLPFIFVMFPLHFV | 76700
LSHFLAGLHHSVLLAYFLYFFVLPFSLLCYSIFLLYFSFGLDGIILLFYYFIF | 37100

Reference: the supplement of paper PMC12636428
